Test results published in a protein production outcome set (Wang et al. 2014).

Experiment: label from the status in PepcDB records

**Q.** Which protein production does the source give for “MKWIMKLRWAILAFWLAAAVVLMFIAPPMADLVREKGELKLPDGYPSSLATEMQKKHNPDDKGSAYIAVYTADHKLTGTELNDIQKSLDSIEKDKDELHVTNVLSSFNQPELKDKFLAKDGKTMVASLTVDDTDASVKSIRNALDKKMDVKGVDTYLTGNKLIQEDVVQGSEDGLHKTEGITVVFILVVLFLVFRSAVAPFIPLITVGISYLVAQSTVAFLIDIFNFPVSTYTQIFMVCIMFGIGTDYCILLMSRFKEEMGAGLNPREAVHATYRTAGKTVIYSGVAVLVAFTSLYFVQFDLYRSAVAVGVGIVVLLAALYTLVPFFMSTLGTHLFWPLNKNISHKENKIWGAAGKFTFARPWIALLIVAAITLPPILLHTGTESFNSLDEISDKYPSKKGFEIVSDSFGAGQVAPTQIFIENDDNMRTTDYIAQIEKISDDLSHLKGIDMVMSASRPAGKRVDDIYIKNQAGQVNDGVGQATDGVGEVKKGLDSASSELKKSEPALDKAVAGVGDLQKGTVATQEGINQLQTALAQIQKGIESGATGAGDLKQGVAEAKSQLATLQNGEAQIQAGYAEIQKNLQNVADQLKGFENPSSQAIDTSKLEEQFKKIGASFQAFAAAHPEVRNDPRFQKLAADIQGLETAGNELKTSAGQQMAALQAKMKELNQGIQQLATAMNQLNEQSKQISDGLSAFSTGLGQIETGLDQLEKGLNQAAVGQGQVVSKMPEVSNALTQIAAGQGALKDGFAGISGQMGQLTDGLTSGADGLGKVESGLNTANGLIDDWSKVPYASSGIYVPDALLKNADFQKVLDQYISSDGKLATINVILTKNPYSNEAMDSIDDINDQLAASMKGTKLENAKIGIGGMTSANYDTRDMSTADYHLVLVIVLASVFVTLVIVLRSLVMPIYLIASLVLTYFAALGFAEIIFMRILGYSGLTWATPFFGFVVLVALGIDYSIFLMSRFNEYNGLSVRDRMIKAMKNMGGVIFSAVIILGGTFAAMMPAGVLSLLEIATVVLIGLVLYAVVILPLFVPVMVKLFGRGNWWPFITRKGDHQENVPPKK” here?
**A.** failed

**Q.** With “MKWKKSLAGLSSYKPGKREEEVMAELGLTKITKLSSNENPLGTSKKVAAIQANSSVETEIYPDGWASSLRKEVADFYQLEEEELIFTAGVDELIELLTRVLLDTTTNTVMATPTFVQYRQNALIEGAEVREIPLLQDGEHDLEGMLNAIDEKTTIVWICNPNNPTGNYIELADIQAFLDRVPSDVLVVLDEAYIEYVTPQPEKHEKLVRTYKNLIITRTFSKIYGLASARVGYGIADKEIIRQLNIVRPPFNTTSIGQKLAIEAIKDQAFIGECRTSNANGIKQYEAFAKRFEKVKLYPANGNFVLIDLGIEAGTIFSYLEKNGYITRSGAALGFPTAVRITIGKEEDNSAVIALLEKLL” as the sequence, how does the protein production read?
**A.** not failed

**Q.** With “MKWLLVASAALYLFGSFRRPLFALGLGAGLAYLALRGISLGRLPLVGPHDTIAFFSASIGLMTLPFLFSPSLRNSSAFPWATGGTAAVFALFSLAFPALAMPLPPILNTLWFELHVALAFFAYALFTIGAIMGVLFLAGGERRLLDLQYRAALVGYTFFSGSMVAGGIWGYYAWGTYWLWTPKELWTSILWIFYTFWLHLRLRGAGGDRLLAWTGILGFGVMLFTYLGVSMLMKSSHSF” as the sequence, how does the protein production read?
**A.** failed

**Q.** For “MKYAIREYKGKNVDLSKLSSIIENYFREENFVTQSSQHPRGYVIQAKKGGIFRTILGMDRAFTIVLVGDSSDFKVQIGVGKWLQDLGVAAIEAFLITPVVAFVEVPESLWSFELEHEFWQFLENQINLGIQ”, which protein production is on record?
**A.** failed

**Q.** For “MKYKLLVLDVDGTLLNDEKEITPRTLATLLKVQQMGVHIVLASGRPTYGILPLAKKLELGNYGGYILSYNGAQVINAKNGEVLLERRINPEMLPYLEKKARKNGFAIFTYTEDRMIADQADNEHILQEAFLNRMELIEEPEFSVAVDFAPSKCMLVSDDEEALIGLEEHWKKRLNGALDVFRSEPYFLEVLPCGIDKSTSLGALLSHLDITPEEIIVIGDGVCDVSMIQFAGLGIAMGNAQDSVKVCADVVTASNEEDGVALAVEKAILSEIRPAEIPLDQLNERARHALMGNLGIQYTYASEDRVEATMPVDERTRQPFGILHGGATLALAETVAGLGSMILCQPDEIVVGMQVSGNHMSSAHEGDTVRAVGTIIHKGRSSHVWNVDVFTSTDKLVSSIRVVNSILKKR”, which protein production is on record?
**A.** failed

**Q.** With “MKYLKNKIIHFLIFGGIYMDVEVLARAHGQQLVGYEGIKPLSLMGFTSLWMFLVGGLCGVIIGGLNDRPGYYNLKMWKQVLIGGTTITLVELFSGIFFNLYLGLHLWDYSKDRFNFMGQIELKNCIWWYVLPILIIWLDDVLSCYFYGDDRPPSLIMYLVKLVTLR” as the sequence, how does the protein production read?
**A.** failed

**Q.** With “MKYLPLYPILARYPFLRIASRVFSFNIEDELRKFLDTVEAAKRIVDKAIDGRVEYDRFTDESEFFCLGCEENCYDCQKRGTLEGCDLCMGCFENCSLYYPREAVERFYTNAKLSLLTYIASRMIVSAMEDWVRMRYAVNEASYYSRLLREDVEESGKEPIVRLVAIDLGAKLKGWKMHVSTFVRVSARIKDDKWRLVNRKLRNGWVETTKAEVLRGLEELLRMKLFEKVPVSEAVSEAVRELSRKAKRESEKFAMDLGEVDLNCLPPCMREILSELQRGMNIPHTARFAITSFLLNIGMTVDEIIALFKSAPDFDDEKTRYQVEHIAGERGKGAEYTSPSCDTMRTYSNCVADCRVSHPLIYYKKCKSKSLEHHHHHH” as the sequence, how does the protein production read?
**A.** not failed

**Q.** Which protein production does the source give for “MKYQNEGQHRSPWALIVFLALSMAVTSPATRAQSSDLPSIGGSGGLISGQMEADIGQQVMASIRRSAPQLQDPLVYDYLSAIIYRLVPSAPLDNRDLKLVLIDSPAINAFAVPGGVVGVNGGLFLNAATEQQFASVLAHELAHLSQRHFARRMQQQETSAPLTLAGMIAGIVLSAVTQSDIGIAAIAGTQAMAVQNMLAYSRSHEQEADRVGMDILASAGMDPRGMPEMFEIMMRQNRLQGNRLPEYLSTHPLTQNRVADTRNRAEQYPDTRVQDGQEYHLVRSRLQVHYSESPETAIETFEAYLAREDAQRNDAIRYGLAVAYQESRRYEKAEQLMRELLKANPGRITFQVSLAEVLLSQKRYADARALMQEALARNPGNYPITSTLAAIEIADGNGAAAADYLRELTRRLPSQEQLWLRLAEAEGMARNIVGVHRARAEYDVLMGDLKSAQRQLRQAQEKLPAGSAERQVVSERLGELTNRLQAREAG” here?
**A.** failed

**Q.** With “MKYRQWVLGAGFTLSVGLSSVAHAFSIPQPANEIAASKFVHIQVQAEQGDADAQFLLGLMFLSGRYVQQEVPSGLHWITLAAEQQHEKAQQTLADLSFEGQLIKRDLAVAERWYKDMGERGNRWAQFRLGFIYASGGDGVKRNCGKAVEQFTRVGDDIALGNVAWILATCPEAEYRDGNKALELSLQLLKVNENDPTNLDNLAAAYAEVGDFGAAVSTQQKAIAALKMTAEATKTDEFKQRLHSYEQKRAYRETLRLLE” as the sequence, how does the protein production read?
**A.** failed

**Q.** With “MKYSEAQQGRVFVIRLEDGDIFHEEIERFAKEKGIERAYLNVVGGADKESKLVVGPEESRTYPVNPMEHELYDAHEIVGTGTLFPDDTSAPVVHLHMACGREENTVTGCVRNGVKVWHVMEVILVELLGTQARRLPDKATGFKLLVPLEHHHHHH” as the sequence, how does the protein production read?
**A.** not failed

**Q.** With “MKYYPFSYYRSINAADLYENIKAYTVLDVREPFELIFGSIANSINIPISELREKWKILERDKKYAVICAHGNRSAAAVEFLSQLGLNIVDVEGGIQSWIEEGYPVVYGRESAEDLEHHHHHH” as the sequence, how does the protein production read?
**A.** not failed

**Q.** For “MLALKKKSVKAAFEALIPKIMEEGTEMVSEDGQKCKELMNTIIEITDPSDKSISEKYPLGERAVESYTEQLLHGSAATFVYDYHERIFEYPSDKKELKNDQIDYIVNKLKEQINSRRAIAITWNPYIDQTVKDVPCLQIVQFLIRDNKLYQTVLFRSNDAFLAFHANAIGLIALGEMVAEKLEIELAKYTHHSVSMHVYSERDIDALKKF”, which protein production is on record?
**A.** not failed

**Q.** With “MLALKSSELEGIATSLTAVAGALHESNTDRLQSWQQLETMTSASSLIQGFIKLVDYNRPTVNIVEQMHKTASTLFNTADFLRTLEGYVDVLEKQADKSITLTVMLRYIASLSSLLDLMCAREINALCTAITPEPLKHLGDFGTLPASAIHEFHLVNAPPEIRALAEAHPDMQILEAGDGSLVASFGDIDRATTVTTIVAGVGSSNPEGWNTYVDRARTVSASTGSATVLWLGYQAPASIPAAVSGAAANRAAADLQRFQAALQSRNPHQRKVVMGYSYGSTVVGKAASSGELSADALVLVGSPGAGVSHSSQLGAPVYAVTGSADPIGFAGTQYDGIHGTDPTAALFGATVWDSPSTHSGYWNDQEFLGNVAEVVRGK” as the sequence, how does the protein production read?
**A.** failed

**Q.** Which protein production does the source give for “MLDAAIKALTQILSPPMRSILWRSVGFALALIAVAAIGLQRLLSWAATSSELWAEAALGGFQTPLNILSWVLSIAAGLGIVVGAVFLMPAVTSLVAGIFVDEAAEHVERESYPHEAPGVALPIGLATWETVKTALLTILVYLVALPFLFVAGAGAIVFFVATAWLLGREYFELAAMRFRTAPEAKAMRRDNATTVFIGGLIIAAFVSIPIVNLATPLFGMAFMVHLHKRLSGSRPEVLAPDQRSMLR” here?
**A.** failed

**Q.** With “MLDHVIRGATVVDGTGAPAYTADVGIRDGRIAAVGTVTEPARAGEDAAGLVLAPGFVDPHTHYDAQLFWDPYATPSLNHGVTTVAGGNCGFTLAPLNPDRPQDADYTRRMMSKVEGMSLVALEEGAPWSWHTFGDYLDALEGRIAVNAGFMVGHCALRRYVMGPDAVGGRPTREQLERMLALFHEAMDAGAWGLSTTQSSTHSDGDGQPVASRHARPAELLALARAVGEHEGTQIEAIVAGCLDQFSDAEIDLFVEMSAAAGRPLNWNVLTIDAAVPERVPRQLTASERARKAGGRVVALTMPILTPMNMSLGTFCALNLIPGWGEVLGLPVPERIARLRDPDVRAELLRRADSKEAGVFRRLANFGRYVIGDTYSTANEGLTGRVVNDIAAERGQDPFHCLVEICAADELRTVLWPMPTDNDPDSWALRAETWRHKDVLLGGSDAGAHLDRMCGAPYTTRFLGDCLRGRKLVPLEQAVKMLTDDPARLFGLRDRGRIREGFHADLVLFDPARIDAGKATLVHDLPGDSPRLDSKAIGVTAVWVNGVEAIRDDVVTGAVPGKVLRSGRDTRTVSTR” as the sequence, how does the protein production read?
**A.** failed

**Q.** With “MLDKNVLNEIGSKVNEILASSPARDVEKNMRAMLTGAFARLDLVTREEFDVQQEVIKRTRIKLAELEEKVRKLEQQLQQPAEVVSSNETGDA” as the sequence, how does the protein production read?
**A.** not failed

**Q.** With “MLDLAAPFFLLLLPLPFLVRRFLPPHAAQEGALYLPEAFAAAARPTSAFARSERWEGALRAILWLALVLALAGPERLKAVPDLSASGREIVLTLDMSGSMLIEDFDIDGVQSTRLEAVKRVARSFVEERQGDRIGLVLFANRAYVAAPLTFDLAAVGRAIEEASIGITGRSTAIADGLGLALKSVTESSAASRVIVLLSDGQDNAHQIDARQVAGLAARHGVRIHTIALGPDDLETRPAARDAVDTATLRAIAEASGGRSYRVRGMEDLRAMAADLDRLEPNPAERPPVLVPEPLWPWPALLALGAALVLGLRRAGLAPWPRRAGRAA” as the sequence, how does the protein production read?
**A.** failed

**Q.** With “MLDLNPNQSYIIRINKKGGINMHWLADLLAAIGVVLNGIPQGIMAMSLGFAVFPTAFSFGLVGLINGVASSVAPVSFQAESLALVGHLGHDLRERSSIIFLGASLMFVIGLTGTLPLIVHSLGNQLMAAMMAGVGLMLAKIALQMAHEQPQFGWLSIGLAGVTYLISKDLVWTIAVSVIGTSCYAATTHYRVALPEHVTTRKLQFVRPQFSFKILRGALSLACLNIGANLSYGLITGQMTGQHPNPVNLNLLTSSQALADLGTSLLGGAPVETIISATASAPEPVIAGILMMLIMMLILLLGWLPKLGKVVPSTAIAGFLFILGTIVIFPENATTALHGSLSTVAGVTLVVTALVDPFAGLMTGALLKFGLPLIGLGL” as the sequence, how does the protein production read?
**A.** failed

**Q.** For “MLDLVAAFIALTTLLTYVNYRFIRLPPTIGVMATALVFSLIVQGLSELGYPILEVEMQEIIRRIDFSEVLMTWFLPALLFAGALHVDLSDLRSYKWPIGLLATAGVLIATFVIGGLAYYTFPLFGWQVDFIYCLLFGALISPTDPIAVLGILKSAGAPKPLATTIVGESLFNDGTAVVVFAIILGILQLGEAPTVSATAILFVQEAIGGVVFGAVLGYGVFVMMRGIDQYQVEVMLTLALVIGGAALAARLHVSAPIAMVVAGLIIGNHGRHYAMSDETRRYVDKFWELIDEILNALLFALIGLELLLLPFSWLHVAAAFALGGAVLVSRLLTVGPAILVLRRFRGANRQVPAGTIRILVWGGLRGGVSVALALSLPLGPERDLILSLTYIVVLVSILLQGLSIGPLVRRIYAGQPLEKSEGAH”, which protein production is on record?
**A.** failed
